In the experiment the target is Transglutaminase 2 (TG2), wildtype, human, recombinant (human) (UniProt P21980). In words: SAXS.

On to “Transglutaminase 2 (TG2), wildtype, human, recombinant (from UniProt P21980 1-687) (enzyme)”, for which the percent dimer (initial state, t=0 ms) turned out to be 61% and the percent monomer (initial state, t=0 ms) came out at 39%.
